According to the supplement of paper PMC9170038:

Tested on: K4 kissing-loop RNA reporter
Assay: apparent KD of K4 kissing-loop reporter; higher = weaker reporter binding
Conditions: Eterna round: R107
Procedure: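 RNA-MaP round R107: designed RNA switches with theophylline, tryptophan, arginine or FMN aptamers are transcribed on-chip within common flanks. They are titrated with a labelled K4 kissing-loop RNA reporter in RNA-MaP buffer (100 mM Tris pH 7.5, 80 mM KCl, 4 mM MgCl2), without ligand or with the indicated ligand. Median apparent KD per design.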

[1] = input ligand: theophylline 20 uM
[2] = input ligand: tryptophan 2.4 mM
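Note: bound reporter read as fluorescence of individual clusters on recovered sequencing chips by microscopy, with normalized cluster intensities fitted with a binding model.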

| Sequence | apparent KD of K4 kissing-loop reporter (input ligand: FMN 200 uM) [nM] | apparent KD of K4 kissing-loop reporter (input ligand: arginine 13.2 mM) [nM] | apparent KD of K4 kissing-loop reporter (input ligand: none) [nM] | apparent KD of K4 kissing-loop reporter [1] [nM] | apparent KD of K4 kissing-loop reporter [2] [nM] |
| --- | --- | --- | --- | --- | --- |
| CCGCUACCCUCAGGAUAUUAAAUAUUAGUGAUGUUAAUAAACCGAUGGCGAAAGCCAUCGGUAUGUUGAGAAGGGAGGGUAGCGG [whbob_SS_FMNB__2th196] | 145 | 593 | 766 | 549 | 635 |
| CCGGCCCGGCCGGAUACCAGUGCGCCGCUGGGAACUGCGGGCCCAGAGUGAUGUUCGGGACACCCUUGGCAGCCGCCUGGGUCGC [#2 Same State - Theophylline B Attempt #25 (HarryS)] | 450 | 345 | 562 | 360 | 439 |
| CCUAUCUCAUACGAUACCAGUCGUCGAGUGAUGUUCGAUUAAAUAUAUUUGCCAAAUAACGACCCUUGGCAGCGUAUGGGAUAGG [Ex Theophylline B K4 17] | 367 | 328 | 340 | 417 | 314 |
| CCUAUCUCAUACGAUACCAGUGAAUAACCAGUGAUGUUGGAAUAACCAAGGAAUAUUUUACACCCUUGGCAGCGUAUGGGAUAGG [Ex Theophylline B K4 25] | 274 | 239 | 305 | 270 | 269 |
| CCUUGAGAGUGAUGUUCUCGAGUGAAAGUCAAGGAUAUCCCGCGGUGGAGAAGGUGAUGGCGAACUUGACUGCUGUCAGUCCUAA [theeternabot_exclusion_KL_FMN_A_10] | 104 | 105 | 121 | 109 | 110 |
| CGAGUCAAUUCAGAUACCAGCCAAUUAAAGUCGAGUGAUGUUCGACAAUGAACAUCCAAAGGCCCUUGGCAGCUGAAUUGGGAAC [Same State Theophylline B GF 18] | 144 | 87.3 | 114 | 228 | 83.4 |
| CGAGUGAUGUUCGUUUAUUACUCUGUUUGACAGGAUAUGCGGAAACGCAGAAGGGUCACCUUUGAGUUAGACGGAGUUAUUUUUU [Ex FMN A 22] | 539 | 359 | 407 | 355 | 323 |
| CGAUCUGAUAGCAGUGAUGUUGCUACAGAUACCAGUCCAGAUCGAGACCCUUGGCAGCUGACCCGGCAUGUGCUAUGGUAGAUCG [Theo A Ex t1] | 156 | 127 | 155 | 154 | 146 |
| CGCAGUGAUGUUGCGAAUAUAAUAACGGAAGGAGCGCGUGAAAACGCAGGUAGGUCGCCGAUUGGUAUGAUGGAAACAUCGUACC [Arginine A K4 9] | 154 | 134 | 125 | 115 | 122 |
| CGCGUAUCGGCAGGAUAUGGAGUUGAGUGAUGUUCAGCAAUGGGUCAUCAUCUUUAUGACAAUCCACCAGAAGGGCCGAUACGCG | 622 | 632 | 1100 | 944 | 812 |
| CGGACGGUAUCGGCCGCCACUCUGAAGACAGUGAUGUUGUCCGUGCAGUAUUUAGGAAAGCCGCGGAGGACCGGGAUGCGUCACU [theeternabot_sameState_KL_Trp_B_48] | 374 | 150 | 232 | 253 | 340 |
| CGGAUGUAGUGAUGUUAUAUUAGAUGUAGACGAGGACCGGUACGGCCGCCACUCGUGAUGGCUGCUAGCGCGUUGCGAGGUUUGC [ExTryptoA.Co] | 408 | 558 | 567 | 633 | 386 |
| CGUGCCCGGCCGGAUACCAGUGACCCGCUGGGAACCGCGGGCCCAGAGUGAUGUUCGGGACACCCUUGGCAGCCGCCUGGGCGGC [#2 Same State - Theophylline B Attempt #13 (HarryS)] | 987 | 637 | 1080 | 614 | 655 |
| CUAUGGAAACAUAGUGAUCGGGAAACCGAUACCAGUAUGGAAACAUACCCUUGGCAGCGGAAUGAUCUAACGGAGUGAUGUUCCG [Theophylline A K4 23] | 492 | 456 | 574 | 389 | 496 |
| CUCUAACUGAGAAGGAGCGCGAUAUAAACACUCGCACAGUGAUGUUGUGUGUCAAGGGUAUCGCAGGUAGGUCGCUCAGAUACCU [Arg B SS t15] | 294 | 247 | 255 | 273 | 248 |
| CUGAGCCUGACGUAAGUCAGGCUCUGCGAGCGAGGACCGGUACGGCCGCCACUCGGUGCAGUGAUGUUGCAUGGCCGCAAGGCCG [#2 Exclusion - Tryptophan A Attempt #19 (HarryS)] | 293 | 246 | 234 | 254 | 345 |

| Sequence | apparent KD of K4 kissing-loop reporter (input ligand: FMN 200 uM) [nM] | apparent KD of K4 kissing-loop reporter (input ligand: arginine 13.2 mM) [nM] | apparent KD of K4 kissing-loop reporter (input ligand: none) [nM] | apparent KD of K4 kissing-loop reporter [1] [nM] | apparent KD of K4 kissing-loop reporter [2] [nM] |
| --- | --- | --- | --- | --- | --- |
| CUGGGUUGACGAAAAGUCAACAAAUGAGAAGGAGCGCACGAAAGUGCAGGUAGGUCGCUCAGUCCAGUGAUGUUGGAUCAUCCAG [#SwitchBubble 10 #K4Late] | 461 | 602 | 578 | 480 | 361 |
| GAAACGUUGCGGACUAUCGCAUAAAGUCACCGAGGACCGGUACGGCCGCCACUCGCCAGUGAUGUUGGCGUGUUUGCGCGCUGUG [Titebebi] | 104 | 94 | 95.4 | 101 | 178 |
| GAAAGGAGUGAUGUUCCUGAUAAUUUUAUGAAGGAUAUUCGAUGUGGAAGAAGGUCAUGCAGGCAGCAAGGUUGCGAUCAUAUCA [theeternabot_exclusion_KL_FMN_A_40] | 131 | 158 | 143 | 185 | 128 |
| GAAUAAUAACAUGAGUGAUGUUCAUGUAAACGAGGACCGGUACGGCCGCCACUCGAACCUCAUGUAAGCCGUACCAAUAACAAUA [KL-XTryp-A4 #analogue] | 115 | 120 | 112 | 116 | 120 |
| GACGGGUUCCUGCUCAAUCCGUCGCAUGAUCGAGGACCGGUACGGCCGCCACUCGAGGCCAUGCCGUACGAGUGAUGUUCGUGCG [Xeon] | 438 | 367 | 403 | 380 | 200 |
| GAGGCCAGACGGAGUGAUGUUUCGUAUGAUACCAGCAGCGAAAGCUGCCCUUGGCAGCAUGCCACGGCCUCGGCGGGAAACCGCC | 372 | 319 | 397 | 446 | 384 |
| GAGGUGGAGUGAUGUUCCACACUCGCUAGUAAGGAUAUGGCUGCUUCCAGAAGGUACCUAGAUUCAGUGUGCAUCAGUAACGUGC [theeternabot_exclusion_KL_FMN_A_4] | 95.2 | 96.3 | 106 | 105 | 96.3 |
| GAUAUAGUGAUGUUAUAUACUGAUAGACAACGAGGACCGGUACGGCCGCCACUCGAGAGGGUGAAAAUAAUGAUAAAAUAAUAAU [ExyTryA#1] | 343 | 310 | 359 | 298 | 265 |
| GAUAUAGUGAUGUUAUAUACUGAUAGACAACGAGGACCGGUACGGCCGCCACUCGAGAGGGUGAAAAUGAUGAUAAAAUAAUGAU [#02 K4 Tryptophan A Exclusion] | 329 | 318 | 333 | 306 | 278 |
| GAUCUGAACGAAAGUUCGGAUCAUUCCGAUACCAGUAUGGAUUCAUACCCUUGGCAGCGGGAUUCUGCUAUGGAGUGAUGUUCCA [Theophylline A K4 15] | 422 | 332 | 475 | 400 | 362 |
| GAUGAAGAGUCGUUAGUUAGGGCUUUCGAUACCAGCGCCCGUCCACGCCCUUGGCAGCGAUUGAAAGAGUGAUGUUCUGUCAGGA [theeternabot_exclusion_KL_Theo_A_31] | 578 | 309 | 546 | 741 | 289 |
| GAUUCUGUUCGAAAGAACGGAAUCACGGAAGGAGCGAGAGAAAUCUCAGGUAGGUCGCCGAAUUUUAGAUAGUGAUGUUAUCAUU [Arginine A K4 1] | 820 | 724 | 1080 | 856 | 711 |
| GAUUUAGAGGCGGCCGCCACUAGUGAUGUUAGUGAUGUUUGAUACUGUAUAUAUCGGCGUGUAGAUAGGACCGGGCCUGAUGGAG [drrdmullin] | 259 | 176 | 266 | 210 | 196 |
| GCAAUCCCGGCGGCCGCCACUUUCAUACCAGUGAUGUUGAGUAGGAAAUGGAAUAUGCGCUGAAUAAGGACCGGGCCUAAGGAGA [theeternabot_exclusion_KL_Trp_B_47] | 270 | 216 | 251 | 255 | 210 |
| GCAGUGAUGUUGCGAAUCGGCCAUGAUGCAGAGGAUAUCGUGCCUUCGAGAAGGUUGUAUAGAGGAUACGAUACUAUUAAUGACG [Same State FMN A GF 6] | 395 | 356 | 714 | 413 | 329 |
| GCAUCCAUGGCAGGAUAUAGGUUCGUGGAGUGAUGUUCCAUAGCCCGAGUGAUGUUCGUUAUCCACCUAGAAGGGCCAUGGAUGC [whbob_Ex_FMNB__2th212] | 270 | 205 | 246 | 211 | 210 |
